Consider seven compounds from publication PMC12004451, “Characterization of the Two-Domain Peptide Binding Mechanism of the Human CGRP Receptor for CGRP and the Ultrahigh Affinity ssCGRP Variant” (Biochemistry, 2025).

In data set [1] the target is NLuc-CLR:RAMP1 (human CGRP receptor, CGRPR) in COS-7 membranes (human) (UniProt Q16602). Description: FRET or BRET; nanoBRET association kinetics of TAMRA probe on NLuc-CLR:RAMP1 COS-7 membranes, 25 C; kobs against probe concentration, linear regression; Kd calculated as koff/kon.
The target is the same in data set [2]. The experiment in a line: FRET or BRET; nanoBRET equilibrium saturation binding of TAMRA probe to NLuc-CLR:RAMP1 COS-7 membranes (0.08 nM NLuc-CLR), G protein uncoupled state with 50 uM GTPgammaS, room temperature, 25 mM NaHEPES pH 7.4, […] NaCl; one-site specific binding fit.
Data set [3] has as its target NLuc-CLR:RAMP1 (human CGRP receptor, CGRPR), membrane preparation (human) (UniProt Q16602). Description: FRET or BRET; nanoBRET association kinetics; membranes injected into 2-fold serial dilutions of TAMRA probe; 25 °C; one-phase association fits, kobs against probe concentration by linear regression (kon slope, koff intercept); Kd calculated as koff/kon.
The target is the same in data set [4]. Description: FRET or BRET; nanoBRET equilibrium saturation binding; 3-fold serial dilutions of TAMRA probe with NLuc-CLR:RAMP1 membranes (0.01 mg/mL total protein, 0.08 nM NLuc-CLR) and 50 μM GTPγS (uncoupled state); 2 h or 4 h; room temperature; 25 mM NaHEPES pH 7.4, […] NaCl, 5 mM KCl, 1 mM KH2PO4, 3 mM MgSO4, 2 mM CaCl2, 1 mg/mL FAF-BSA, 50 μg/mL saponin; one-site specific binding fit.

Data set [5] deals with T1, CGRP receptor (Nluc-CLR:RAMP1) (Homo sapiens, UniProt O60894+Q16602).
T1 construct: N-terminally Nanoluciferase (NLuc)-tagged CLR (pcDNA3.1(+)sec/NanoLuc-GSGIS-CLR.23-461); Wild-type CLR and RAMP expression plasmids were obtained from cDNA.org; sec (vector secretion signal before NanoLuc) (N); expressed in transfected cells; host or cells: COS-7 cells, membrane preparation
Description: nanoBRET equilibrium competition binding, Nluc-CLR:RAMP1 membranes. To be noted: 8 h, room temperature, Cheng-Prusoff, mean ± SEM, n=3. The method, then: After 2 days, the cells were washed with PBS and harvested with ice-cold PBS + 5 mM EDTA. The cells were pelleted in a centrifuge at 1000g for 5 min at 4 °C and resuspended in a hypotonic buffer (25 mM NaHEPES pH 7.5, 2 mM MgCl2, 1 mM EDTA, and 1× EDTA-free PIERCE protease inhibitor tablet). After resuspension, cells were homogenized with an Ultra Turrax for 30 s at 10,000 rpm followed by a 10 min incubation. Cell debris was pelleted at 800g for 10 min and the supernatant was transferred to ultracentrifuge tubes and centrifuged at 100,000g for 1 h. Membranes were resuspended in a wash buffer (25 mM NaHEPES pH 7.5, 250 mM NaCl, 2 mM MgCl2, 1 mM EDTA, and 1× protease inhibitor tablet). The homogenization and ultracentrifugation were repeated once more and the membranes were resuspended in storage buffer (25 mM NaHEPES pH 7.5, 25 mM NaCl, 2 mM MgCl2, 10% v/v glycerol, and 1× protease inhibitor tablet). The resuspended membranes were homogenized, aliquoted, and flash frozen in liquid nitrogen for storage at -80 °C. Total protein was quantitated using the DC protein assay (BioRad) per the manufacturer's instructions. The concentration of NLuc-CLR was determined by comparing the membrane prep luminescence to a standard curve using purified NLuc enzyme (Promega; […]). […] The Cheng-Prusoff correction[30] was used to calculate the Ki from the IC50.

The target of data set [6] is T1, CGRP receptor (Nluc-CLR:RAMP1). Description: nanoBRET dissociation kinetics of TAMRA probes. It counts as binding. The method, then:
After 2 days, the cells were washed with PBS and harvested with ice-cold PBS + 5 mM EDTA. The cells were pelleted in a centrifuge at 1000g for 5 min at 4 °C and resuspended in a hypotonic buffer (25 mM NaHEPES pH 7.5, 2 mM MgCl2, 1 mM EDTA, and 1× EDTA-free PIERCE protease inhibitor tablet). After resuspension, cells were homogenized with an Ultra Turrax for 30 s at 10,000 rpm followed by a 10 min incubation. Cell debris was pelleted at 800g for 10 min and the supernatant was transferred to ultracentrifuge tubes and centrifuged at 100,000g for 1 h. Membranes were resuspended in a wash buffer (25 mM NaHEPES pH 7.5, 250 mM NaCl, 2 mM MgCl2, 1 mM EDTA, and 1× protease inhibitor tablet). The homogenization and ultracentrifugation were repeated once more and the membranes were resuspended in storage buffer (25 mM NaHEPES pH 7.5, 25 mM NaCl, 2 mM MgCl2, 10% v/v glycerol, and 1× protease inhibitor tablet). The resuspended membranes were homogenized, aliquoted, and flash frozen in liquid nitrogen for storage at -80 °C. Total protein was quantitated using the DC protein assay (BioRad) per the manufacturer's instructions. The concentration of NLuc-CLR was determined by comparing the membrane prep luminescence to a standard curve using purified NLuc enzyme (Promega; […]). The total protein concentration was 0.91 mg/mL and the NLuc-CLR was 7.35 nM. For dissociation kinetics, the membranes and probe in binding buffer were incubated in a 96-well white plate (Corning; Costar 3912) followed by furimazine addition at 1× for 5 min (75 μL volume). […] The buffer control defined the stability of the signal. […] Unlabeled […](8-37) (4×; 10 μM) or binding buffer was loaded into the injectors and injected into the plate, which was read for 4 h. […](8-37) (4×; 1 μM) or binding buffer was loaded into the injectors and injected into the plate, which was read for 1 h. The BRET ratio 610/460 was plotted against time and the membrane only control was subtracted. The dissociation data were normalized to their corresponding buffer control injections as 100% (100*value/baseline) to account for signal decay with time. The normalized dissociation curves were fit to a one-phase (dashed line) (https://www.graphpad.com/guides/prism/latest/curve-fitting/reg_exponential_[…]) or a two-phase (solid line) (https://www.graphpad.com/guides/prism/latest/curve-fitting/reg_exponential_[…]) exponential decay models in GraphPad Prism to determine the koff.

Data set [7] has as its target NLuc-CLR:RAMP1 (human CGRP receptor, CGRPR), membrane preparation (human) (UniProt Q16602). The experiment in a line: FRET or BRET; nanoBRET dissociation kinetics; membranes preincubated with probe (1 nM ssCGRP(8-37)-TAMRA or 10 nM AM2/IMD(8-47)-TAMRA), dissociation started by injection of excess unlabeled ssCGRP(8-37); 25 °C; normalised to buffer control; two-phase exponential decay.

The target is the same in data set [8].
Data set [9] concerns the target NLuc-CLR:RAMP1 membranes with 30 μM purified sumo-miniGs (G protein-coupled state of the CGRPR) (UniProt Q16602). Description: FRET or BRET; nanoBRET equilibrium saturation binding; as the uncoupled format but with 30 μM purified sumo-miniGs (G protein coupled state); 4 h; room temperature.
Data set [10] addresses NLuc-CLR:RAMP1 (human CGRP receptor, CGRPR), membrane preparation (human) (UniProt Q16602). Description: FRET or BRET; nanoBRET competition association kinetics, simultaneous addition of 20 nM CGRP(27-37)*-TAMRA and unlabeled (27-37) peptide; 25 °C; Motulsky-Mahan equation with a signal decay term; Kd calculated as koff/kon.
For data set [11], the target named is T1, CGRP receptor (Nluc-CLR:RAMP1). Description: nanoBRET association kinetics of TAMRA probes. The class given is binding. As to conditions: association kinetics, 25 °C, mean ± SEM, n=3. The method, then:
After 2 days, the cells were washed with PBS and harvested with ice-cold PBS + 5 mM EDTA. The cells were pelleted in a centrifuge at 1000g for 5 min at 4 °C and resuspended in a hypotonic buffer (25 mM NaHEPES pH 7.5, 2 mM MgCl2, 1 mM EDTA, and 1× EDTA-free PIERCE protease inhibitor tablet). After resuspension, cells were homogenized with an Ultra Turrax for 30 s at 10,000 rpm followed by a 10 min incubation. Cell debris was pelleted at 800g for 10 min and the supernatant was transferred to ultracentrifuge tubes and centrifuged at 100,000g for 1 h. Membranes were resuspended in a wash buffer (25 mM NaHEPES pH 7.5, 250 mM NaCl, 2 mM MgCl2, 1 mM EDTA, and 1× protease inhibitor tablet). The homogenization and ultracentrifugation were repeated once more and the membranes were resuspended in storage buffer (25 mM NaHEPES pH 7.5, 25 mM NaCl, 2 mM MgCl2, 10% v/v glycerol, and 1× protease inhibitor tablet). The resuspended membranes were homogenized, aliquoted, and flash frozen in liquid nitrogen for storage at -80 °C. Total protein was quantitated using the DC protein assay (BioRad) per the manufacturer's instructions. The concentration of NLuc-CLR was determined by comparing the membrane prep luminescence to a standard curve using purified NLuc enzyme (Promega; […]). […] Costar 3912). […] The observed association rates (kobs) were plotted against probe concentration and the data was analyzed by linear regression. The kon and koff were obtained as the slope and y-intercept, respectively.

The mark [12] stands for this setting: 1/koff slow, two-phase dissociation, read-out: Residence time slow.

Where “and” joins values, the source holds several entries; their conditions need not be identical. Equal entries are not always repeated. Where two headings read alike, the source gives them in different places. Ends that are not written are not given here. Peptide text beside a SMILES is read from it. * marks the point of attachment. 5TAMRA = CN(C)c1ccc2c(c1)Oc1cc(N(C)C)ccc1C21OC(=O)c2cc(C(=O)*)ccc21

Turning to “αCGRP(27-37) N31D/S34P/K35-TAMRA/A36S/F37Y (peptide)”, the equilibrium dissociation constant (Kd) in data set [1] was 22.5 nM. This compound registered a Kd in [2] of 28.7 nM. In [3], the dissociation constant Kd was 22.5 nM, the half-life was 0.183 min, the off-rate (koff) is 0.0635 s⁻¹ and the kon was 2.75e+06 M⁻¹ s⁻¹. The Kd in [4] was found to be 28.7 nM.
Turning to “VTHRLAGLLSRSGGVVKNNFVPTDVGPWSF-NH2 [ssCGRP(8-37)]”, the affinity (summary, both receptor states) turned out to be 0.5 nM. Further, in data set [5] (G protein coupled state (30 μM sumo-miniGs), 3 nM AM2/IMD(8-47)-TAMRA probe, read-out: Ki + mGs), the Ki is 0.6 ± 0.05 nM. In addition, in data set [5] (G protein uncoupled state (50 μM GTPγS), 30 nM AM2/IMD(8-47)-TAMRA probe, read-out: Ki + GTPγS), the inhibitory constant (Ki) is 0.43 ± 0.02 nM. For the same compound, the residence time in data set [6] (setting [12]) is 76 min.
Regarding “αCGRP(8-37) N26K-TAMRA/N31D/S34P/K35W/A36S (peptide)”, in data set [3], the dissociation constant Kd is 0.085 nM, the half-life is 38 min, the koff is 0.0003 s⁻¹ and the kon is 3.62e+06 M⁻¹ s⁻¹. Further, in data set [7], the half-life of the fast component was 13 min, the half-life of the slow component stood at 52 min, the koff fast came to 0.053 min^–1 and the koff slow is 0.013 min^–1. Further, in data set [7], the residence time (1/koff slow) worked out at 76 min and the residence time of the fast component worked out at 19 min. Also, the Kd in [4] was 0.4 nM.
Regarding αCGRP(8-37) (peptide), in [8], the apparent melting temperature of LMNG/CHS-solubilised MBP-CLR-EGFP:MBP-RAMP1 heterodimer, native PAGE thermostability assay (ligand-free 38.2 °C) came out at 43.6 °C.
In [9], AM2/IMD(8-47)-TAMRA (peptide) yielded a Kd of 6.5 nM. Also, in data set [3], the Kd was 8.1 nM and the half-life is 1.6 min.
Consider CGRP(27-37) (peptide), for which, in data set [8], the apparent melting temperature of LMNG/CHS-solubilised MBP-CLR-EGFP:MBP-RAMP1 heterodimer, native PAGE thermostability assay (ligand-free 38.2 °C) turned out to be 39.8 °C. In addition, the half-life in [10] is 0.06 min.
The compound `CC(C)C[C@H](NC(=O)CNC(=O)[C@H](C)NC(=O)[C@H](CC(C)C)NC(=O)[C@H](CCCNC(=N)N)NC(=O)[C@H](Cc1c[nH]cn1)NC(=O)[C@@H](NC(=O)[C@@H](N)C(C)C)[C@@H](C)O)C(=O)N[C@@H](CC(C)C)C(=O)N[C@@H](CO)C(=O)N[C@@H](CCCNC(=N)N)C(=O)N[C@@H](CO)C(=O)NCC(=O)NCC(=O)N[C@H](C(=O)N[C@H](C(=O)N[C@@H](CCCCN)C(=O)N[C@@H](CC(N)=O)C(=O)N[C@@H](CCCCNC(=O)c1ccc2c(c1)C(=O)OC21c2ccc(N(C)C)cc2Oc2cc(N(C)C)ccc21)C(=O)N[C@@H](Cc1ccccc1)C(=O)N[C@H](C(=O)N1CCC[C@H]1C(=O)N[C@H](C(=O)N[C@@H](CC(=O)O)C(=O)N[C@H](C(=O)NCC(=O)N1CCC[C@H]1C(=O)N[C@@H](Cc1c[nH]c2ccccc12)C(=O)N[C@@H](CO)C(=O)N[C@@H](Cc1ccccc1)C(N)=O)C(C)C)[C@@H](C)O)C(C)C)C(C)C)C(C)C` [ssCGRP(8-37)-TAMRA, αCGRP(8-37) N26K-TAMRA/N31D/S34P/K35W/A36S] (H-VTHRLAGLLSRSGGVVKNK(5TAMRA)FVPTDVGPWSF-NH2; N-terminus assumed) had a kon in data set [11] (kobs vs probe concentration, slope of linear regression, fit of first 10 min (full 1 h 15 min for ssCGRP(8-37)-TAMRA)) of 3.62e+06 M⁻¹ s⁻¹. Further, the dissociation rate constant (koff) in data set [11] (y-intercept of kobs vs probe concentration) is 0.0003 s⁻¹; in data set [6] (two-phase exponential decay, same conditions as koff fast, mean ± SEM, n=3), 0.000222 s⁻¹. Also, the residence time in [6] (1/koff fast, two-phase dissociation, read-out: Residence time fast) worked out at 19.1 ± 1.9 min; in [6] (setting [12]) it was 75.7 ± 3.49 min. The t1/2 fast in data set [6] (ln 2/koff fast, two-phase dissociation) is 13.25 ± 1.32 min and 13 min. The t1/2 slow in [6] (ln 2/koff slow, two-phase dissociation) was 52.45 ± 2.42 min and 52 min. Moreover, the Percent fast in data set [6] (share of the fast component, two-phase dissociation) was 25.6 ± 3.5% and 25.6%.
